{
  "source": "patent US20080050776A1",
  "key": {"Sortilin co-receptor": {"molecular_target": "Sortilin co-receptor (UniProt O54861)", "sequence (O54861 74-825 limits assumed)": "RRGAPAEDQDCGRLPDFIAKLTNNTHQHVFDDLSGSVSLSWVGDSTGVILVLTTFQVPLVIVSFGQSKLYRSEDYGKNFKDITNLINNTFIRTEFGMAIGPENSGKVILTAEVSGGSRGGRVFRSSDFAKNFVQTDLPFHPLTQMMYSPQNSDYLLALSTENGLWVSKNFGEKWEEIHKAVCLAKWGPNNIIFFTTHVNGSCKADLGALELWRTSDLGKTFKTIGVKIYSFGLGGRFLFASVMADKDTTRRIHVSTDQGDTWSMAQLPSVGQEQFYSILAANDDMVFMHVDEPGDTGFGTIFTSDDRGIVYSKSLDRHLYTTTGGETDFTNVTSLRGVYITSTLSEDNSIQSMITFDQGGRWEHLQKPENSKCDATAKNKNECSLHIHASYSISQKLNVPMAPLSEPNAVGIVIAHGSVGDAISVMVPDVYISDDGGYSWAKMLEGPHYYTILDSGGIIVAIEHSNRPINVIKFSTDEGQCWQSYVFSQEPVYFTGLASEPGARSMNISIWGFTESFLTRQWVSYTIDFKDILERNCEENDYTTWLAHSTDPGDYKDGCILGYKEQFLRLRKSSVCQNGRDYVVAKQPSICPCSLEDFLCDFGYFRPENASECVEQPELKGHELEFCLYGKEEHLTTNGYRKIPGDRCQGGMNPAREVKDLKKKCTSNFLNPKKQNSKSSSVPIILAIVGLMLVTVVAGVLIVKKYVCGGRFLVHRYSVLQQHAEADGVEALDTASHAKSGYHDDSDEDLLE", "experiment": "cell-based or functional assay"}, "[1]": {"molecular_target": "p75 neurotrophin receptor (p75NTR) (UniProt P07174)", "sequence (P07174 30-425)": "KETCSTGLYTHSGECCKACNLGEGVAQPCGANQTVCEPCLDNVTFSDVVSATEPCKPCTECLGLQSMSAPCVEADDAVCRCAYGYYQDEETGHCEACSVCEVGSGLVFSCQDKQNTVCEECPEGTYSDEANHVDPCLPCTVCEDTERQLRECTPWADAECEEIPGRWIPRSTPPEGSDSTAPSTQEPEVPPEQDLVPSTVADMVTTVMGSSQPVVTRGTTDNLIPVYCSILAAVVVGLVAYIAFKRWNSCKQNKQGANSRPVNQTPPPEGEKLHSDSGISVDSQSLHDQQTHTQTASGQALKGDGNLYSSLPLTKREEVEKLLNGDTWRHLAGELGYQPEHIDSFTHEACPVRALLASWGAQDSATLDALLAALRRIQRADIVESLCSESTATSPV", "experiment": "cell-based or functional assay"}},
  "data": [
    {"substance": "proNGF123 (mutated mouse proNGF with mutations at all three processing sites) (ligand)", "values": [
      {"measurement": "cell death of PC-12 cells, trypan blue analysis 72 hours post treatment (2 nM)", "setting": "Sortilin co-receptor", "value": "> 90", "unit": "%"},
      {"measurement": "cell death of PC-12 cells, trypan blue analysis 72 hours post treatment (2 nM)", "setting": "[1]", "value": "> 90", "unit": "%"}
    ]}
  ]
}
